The target of this test is SARS-CoV-2 spike S2P (soluble S trimer with two proline mutations) (SARS-CoV-2, Wuhan reference, UniProt P0DTC2, stabilised). As to the kind of experiment: BLI; […] (AHC) sensors, […], association 120 s, […]. The following applies: both partners purified. Background: BLI is a label-free optical method that tracks binding on a fibre tip over time.

B1: CC40.8 broadly neutralizing antibody (IgG) (antibody, V domains shown)
VH: EVQLLESGGGLVQPGGSLRLSCAASGFTFSSYVMTWARQAPGKGLEWVSAISGTGYTYYADSVKGRFTVSRDNSKNTLFLQMSSLRAEDTAVYYCAITMAPVVWGQGTTVTVSS
VL: SYELTQPPSVSVSPGQTARITCSGDALPKRYAYWYQQKSGQAPILVIYEDKKRPSGIPERLSGSKSGTVATLTISGAQVEDEADYYCYSTDSSGNHAVFGGGTQLTVL
notes: also called CC40.8 bnAb; CC40.8 mAb
For the molecule B1, the binding result is recorded as “binds”.

Source of the values: article PMC8939767 (Science Translational Medicine, 2022).
